{"source": "patent US6027877", "about": "“Use of immobilized mismatch binding protein for detection of mutations and polymorphisms, purification of amplified DNA samples and allele identification” (Gene Check, Inc.)", "binders": {"B1": {"name": "beta-globin 30-mer G:T mismatch duplex (dsDNA)", "DNA 1": "GCACCTGACTCCTGGGGAGAAGTCTGCCGT", "DNA 2": "ACGGCAGACTTCTCCTCAGGAGTCAGGTGC"}, "B2": {"name": "unlabeled beta-globin 30-mer G:T mismatch duplex (dsDNA)", "DNA 1": "B1 DNA 1", "DNA 2": "B1 DNA 2"}, "B3": {"name": "beta-globin 30-mer fully matched duplex (dsDNA)", "DNA 1": "B1 DNA 1", "DNA 2": "B1 DNA 2 with T16C"}}, "key": {"MutS [1]": {"molecular_target": "T1, MutS (Escherichia coli, UniProt P23909 P23909:1-853)", "T1 sequence": "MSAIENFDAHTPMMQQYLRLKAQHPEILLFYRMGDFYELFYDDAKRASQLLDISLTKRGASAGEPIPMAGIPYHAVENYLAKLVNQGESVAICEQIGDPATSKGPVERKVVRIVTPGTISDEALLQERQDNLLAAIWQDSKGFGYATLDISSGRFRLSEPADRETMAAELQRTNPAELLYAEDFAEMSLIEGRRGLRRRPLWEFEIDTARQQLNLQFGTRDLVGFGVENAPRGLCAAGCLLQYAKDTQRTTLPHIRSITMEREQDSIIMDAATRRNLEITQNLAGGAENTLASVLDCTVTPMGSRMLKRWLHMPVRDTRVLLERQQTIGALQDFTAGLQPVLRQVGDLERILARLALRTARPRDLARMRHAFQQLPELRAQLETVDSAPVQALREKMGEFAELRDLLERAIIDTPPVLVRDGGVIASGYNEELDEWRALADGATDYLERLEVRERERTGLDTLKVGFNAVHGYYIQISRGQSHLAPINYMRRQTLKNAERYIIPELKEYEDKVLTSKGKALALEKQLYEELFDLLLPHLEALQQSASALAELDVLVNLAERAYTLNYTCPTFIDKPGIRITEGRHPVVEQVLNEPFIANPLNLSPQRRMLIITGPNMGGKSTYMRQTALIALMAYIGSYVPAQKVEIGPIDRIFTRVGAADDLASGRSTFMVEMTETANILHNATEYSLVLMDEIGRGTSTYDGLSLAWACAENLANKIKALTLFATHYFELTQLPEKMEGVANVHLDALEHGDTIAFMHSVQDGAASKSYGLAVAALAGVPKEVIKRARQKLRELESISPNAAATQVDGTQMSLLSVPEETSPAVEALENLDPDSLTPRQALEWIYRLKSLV", "assay": "dot blot with immobilized MutS, streptavidin-HRP ECL; as little as 0.2 ng detected; 20 mM Tris pH 7.6, 5 mM MgCl2, 1% BSA, room temperature", "settings": "tags: adsorbed on nitrocellulose (0.45 um, Schleicher & Schuell); single G:T mismatch", "method": "(§1) Purified MBP, E. coli MutS, at a concentration of 0.5 μg/10 μl reaction buffer was spotted on the nitrocellulose paper in each well. The wells were incubated at room temperature, and the remaining liquid was pulled through with vacuum. Each well was washed twice with 100 μl reaction buffer by adding the solution to the well and then pouring it out. After the second wash, the remaining solution was pulled through the vacuum.\n(§2) Biotinylated oligonucleotides, in 20 μl reaction buffer containing 1% BSA, were added to each well. After 30 minutes at room temperature, remaining liquid was poured out. Each well was washed with 5×100 μl reaction buffer by adding the solution to the well and then pouring it out. After the fifth wash, the remaining solution was pulled through by vacuum.\n(§3) The presence of biotin was detected by its binding of Streptavidin. A 100 μl volume of Streptavidin-conjugated HRP (Pierce Chemicals) at a concentration of […] in reaction buffer +1% BSA was added to each well. After 2 hours at room temperature, the solution was poured out and each well washed with 5×100 μl reaction buffer by adding the solution and then pouring it out. After the fifth wash, the remaining solution was pulled through with vacuum."}, "MutS [2]": {"molecular_target": "T1, MutS", "assay": "competition; competition clearly visible with 50 ng against 5 ng biotinylated mismatch 30-mer", "settings": "tags: adsorbed on nitrocellulose (0.45 um, Schleicher & Schuell); single G:T mismatch", "method": "as §1, §2\nIn competition studies, the DNA binding was as described above, except that a constant amount of biotinylated mismatch-containing oligonucleotide (5 ng) was mixed with varying amounts of unlabeled DNA, with or without a mismatch, and added to the wells."}, "MutS [3]": {"molecular_target": "T1, MutS", "assay": "no detectable binding even with 200 ng; same buffer, 5 mM MgCl2, room temperature", "settings": "tags: adsorbed on nitrocellulose (0.45 um, Schleicher & Schuell); perfect duplex", "method": "as §1, §2, §3"}}, "note": "Where a chain is given by its changes, count along the chain named.", "data": [{"binder": "B1", "values": [{"measurement": "binding result", "setting": "MutS [1]", "value": "binds"}]}, {"binder": "B2", "values": [{"measurement": "binding result", "setting": "MutS [2]", "value": "binds"}]}, {"binder": "B3", "values": [{"measurement": "binding result", "setting": "MutS [3]", "value": "no binding"}]}]}
